Drawing on the supplement of paper PMC9732359, this text covers protein stability index for 26 sequences.

± gives the uncertainty stated by the source.

This series can be described thus: protein stability index of a GFP-peptide fusion (yeast GPS) (PSI 1-4); higher = more stable; sorted into four equal gates, so the index is relative within each strain. The procedure, abridged:
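Each library plasmid carries Cherry plus GFP with a tiled 17-residue yeast protein peptide fused downstream, and the pooled library was carried in yeast. Mid-log cultures in leucine-free medium were sorted into four equal gates by GFP/Cherry ratio. Reads from Illumina sequencing of PCR-amplified plasmids from each gate were assigned to strains by barcodes. Per peptide, the protein stability index was computed as the summed products of gate read frequency and gate number.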

Sequence TSQHSDSLTQNNNNAPI [YOR098C/NUP1] had a protein stability index (doa10∆) of 2.72 ± 0.051, a protein stability index (pdr5∆) of 2.95 ± 0.036, a protein stability index (san1∆) of 2.94 ± 0.043 and a protein stability index (ubr1∆) of 2.88 ± 0.031.

ALILADSEIEISSEKLL [RPP1A]: the protein stability index by setting is: (doa10∆) 1.95 ± 0.13; (pdr5∆) 1.87 ± 0.11; (san1∆) 1.94 ± 0.096; (ubr1∆) 2.06 ± 0.081.

As to YISAELYAQLRENGLVP [SNU114], the protein stability index came to 2.38 ± 0.068 (doa10∆), 2.21 ± 0.071 (pdr5∆), 2.48 ± 0.1 (san1∆) and 2.73 ± 0.058 (ubr1∆).

On to ADDVFTGTGLQDENIGL [RPC31], for which the protein stability index reads like this: (doa10∆) 3.46 ± 0.11; (pdr5∆) 3.44 ± 0.096; (san1∆) 3.21 ± 0.057; (ubr1∆) 3.33 ± 0.07.

As to PGDVLDKDAFIPKLKPA [SNU114], the protein stability index is, setting by setting: (doa10∆) 1.89 ± 0.094; (pdr5∆) 1.5 ± 0.098; (san1∆) 1.2 ± 0.18; (ubr1∆) 1.71 ± 0.12.

With RHMALLVDVMTTQGGLT [RPO21], the protein stability index by setting is: (doa10∆) 1.92 ± 0.15; (pdr5∆) 2.38 ± 0.092; (san1∆) 2.44 ± 0.09.

VSTRAIDLLWKGKTPKN [PRP28]: the protein stability index runs as follows: (pdr5∆) 1.48 ± 0.12; (san1∆) 1.18 ± 0.12; (ubr1∆) 1.16 ± 0.14.

In the case of YIFFGPIYYQKLKHMVL [RET1], the protein stability index (doa10∆) was 1.2 ± 0.062, the protein stability index (pdr5∆) is 1.38 ± 0.1, the protein stability index (san1∆) stood at 1.28 ± 0.12 and the protein stability index (ubr1∆) came out at 1.39 ± 0.062.

Consider NSNTTNQNSSTGAGAFG [YJL041W/NSP1], for which the protein stability index by setting is: (doa10∆) 3.04 ± 0.053; (pdr5∆) 3.07 ± 0.074; (san1∆) 3.03 ± 0.051; (ubr1∆) 2.96 ± 0.05.

Turning to RNMIIVPEMIGSVVGIY [RPS15], the protein stability index turned out to be 1.31 ± 0.094 (doa10∆), 1.42 ± 0.057 (pdr5∆), 1.53 ± 0.13 (san1∆) and 1.45 ± 0.057 (ubr1∆).

On to PNFTGIDKLMLSPSDQF [SSN2], for which the protein stability index was determined as 1.39 ± 0.08 (doa10∆), 1.33 ± 0.068 (pdr5∆) and 1.61 ± 0.067 (ubr1∆).

Regarding AQFTFGKAATAKETHTK [YOR098C/NUP1], the protein stability index runs as follows: (doa10∆) 2.84 ± 0.13; (pdr5∆) 2.81 ± 0.17; (san1∆) 2.84 ± 0.18; (ubr1∆) 3.02 ± 0.18.

Take RQDGSYTYHSTNKDNKA [ARP9]: the protein stability index by setting is: (doa10∆) 2.67 ± 0.062; (pdr5∆) 2.97 ± 0.067; (san1∆) 2.88 ± 0.044; (ubr1∆) 2.64 ± 0.056.

APVEVQEDFEVVEEFTP [RPS5] displayed a protein stability index (doa10∆) of 3.31 ± 0.076, a protein stability index (pdr5∆) of 3.21 ± 0.08, a protein stability index (san1∆) of 3.02 ± 0.049 and a protein stability index (ubr1∆) of 2.94 ± 0.062.

AFNRFMAESLVDLEEVM [SSN8]: the protein stability index is 1.57 ± 0.068 (doa10∆), 2.4 ± 0.078 (pdr5∆), 2.36 ± 0.17 (san1∆) and 1.62 ± 0.059 (ubr1∆).

Sequence DDSFSLLRIQMLLCVSY [PCI8] registered a protein stability index (doa10∆) of 2.1 ± 0.042, a protein stability index (pdr5∆) of 2.05 ± 0.045, a protein stability index (san1∆) of 2.08 ± 0.052 and a protein stability index (ubr1∆) of 2.42 ± 0.034.

As to RCMMAAQYFYSGAYSYP [DIS3], the protein stability index is 2.14 ± 0.12 (doa10∆), 2.31 ± 0.11 (pdr5∆), 1.81 ± 0.2 (san1∆) and 2.12 ± 0.11 (ubr1∆).

On to SLAVRSLQDRSSLVRRN [YCS4], for which the protein stability index by setting is: (doa10∆) 2.4 ± 0.041; (pdr5∆) 2.71 ± 0.047; (san1∆) 2.35 ± 0.045; (ubr1∆) 2.59 ± 0.038.

Regarding NYDIITASSLAHDYNND [YML103C/NUP188], the protein stability index is, setting by setting: (doa10∆) 2.64 ± 0.063; (pdr5∆) 2.05 ± 0.075; (san1∆) 2.61 ± 0.087; (ubr1∆) 2.33 ± 0.056.

For the sequence LCRQGHNMLNLLIHRKG [PRP8], the protein stability index is, setting by setting: (doa10∆) 2.33 ± 0.061; (pdr5∆) 2.55 ± 0.068; (san1∆) 2.31 ± 0.091; (ubr1∆) 2.23 ± 0.041.

Consider VKIVDKDGIRQVDDFQA [PRE1], for which the protein stability index (doa10∆) amounted to 2.86 ± 0.14 and the protein stability index (pdr5∆) turned out to be 2.9 ± 0.11.

Take IGDDGYDLLISTLTTIS [SRB5]: the protein stability index is, setting by setting: (doa10∆) 2.18 ± 0.054; (pdr5∆) 2.1 ± 0.058; (san1∆) 1.52 ± 0.085; (ubr1∆) 2.2 ± 0.061.

As for YVSDSDDSSSDNDSLTD [SIR4], the protein stability index runs as follows: (doa10∆) 2.51 ± 0.051; (pdr5∆) 2.94 ± 0.038; (san1∆) 2.67 ± 0.056; (ubr1∆) 2.63 ± 0.047.

With FTITVARKYLQTRWGLP [FAS2], the protein stability index was 1.44 ± 0.092 (doa10∆), 1.29 ± 0.1 (pdr5∆), 1.36 ± 0.21 (san1∆) and 1.96 ± 0.29 (ubr1∆).

Take TQLSYLISSSLSNLSKD [YCS4]: the protein stability index runs as follows: (doa10∆) 1.7 ± 0.041; (pdr5∆) 1.65 ± 0.041; (san1∆) 1.63 ± 0.074; (ubr1∆) 2.13 ± 0.045.

Turning to TFTFTAHMGVLLVLLQD [SWP82], the protein stability index (doa10∆) is 1.71 ± 0.044, the protein stability index (pdr5∆) is 1.32 ± 0.044, the protein stability index (san1∆) is 1.41 ± 0.087 and the protein stability index (ubr1∆) was found to be 1.42 ± 0.035.
